Substrate in data set [1]: CC1(C)S[C@@H]2[C@H](NC(=O)Cc3ccccc3)C(=O)N2[C@H]1C(=O)O
Briefly: (§1) Kcat/Km ratio of Klebsiella pneumoniae SHV-1.

Substrate in data set [2]: C[C@@H](O)[C@H]1C(=O)N2C(C(=O)O)=C(S[C@@H]3CN[C@H](CNS(N)(=O)=O)C3)[C@H](C)[C@H]12
The data set is described as §1.

Substrate in data set [3]: C[C@@H](O)[C@H]1C(=O)N2C(C(=O)O)=C(S[C@@H]3CN[C@H](C(=O)N(C)C)C3)[C@H](C)[C@H]12
Described as §1.

Substrate in data set [4]: O=C(Cc1cccs1)N[C@@H]1C(=O)N2C(C(=O)[O-])=C(C[n+]3ccccc3)CS[C@H]12
Described as §1.

Substrate in data set [5]: C[C@@H](O)[C@H]1C(=O)N2C(C(=O)O)=C(SCCNC=N)C[C@H]12
The data set is described as §1.

Substrate in data set [6]: CC1(C)S[C@@H]2[C@H](NC(=O)Cc3ccccc3)C(=O)N2[C@H]1C(=O)O
Description: (§2) Activity of Klebsiella pneumoniae SHV-1.

Substrate in data set [7]: C[C@@H](O)[C@H]1C(=O)N2C(C(=O)O)=C(S[C@@H]3CN[C@H](CNS(N)(=O)=O)C3)[C@H](C)[C@H]12
The data set is described as §2.

Substrate in data set [8]: C[C@@H](O)[C@H]1C(=O)N2C(C(=O)O)=C(S[C@@H]3CN[C@H](C(=O)N(C)C)C3)[C@H](C)[C@H]12
Described as §2.

Substrate in data set [9]: O=C(Cc1cccs1)N[C@@H]1C(=O)N2C(C(=O)[O-])=C(C[n+]3ccccc3)CS[C@H]12
The data set is described as §2.

Substrate in data set [10]: C[C@@H](O)[C@H]1C(=O)N2C(C(=O)O)=C(SCCNC=N)C[C@H]12
The data set is described as §2.

Substrate in data set [11]: C[C@@H](O)[C@H]1C(=O)N2C(C(=O)O)=C(S[C@@H]3CN[C@H](CNS(N)(=O)=O)C3)[C@H](C)[C@H]12
Description: (§3) Activity of Escherichia coli TEM-1.

Substrate in data set [12]: C[C@@H](O)[C@H]1C(=O)N2C(C(=O)O)=C(S[C@@H]3CN[C@H](C(=O)N(C)C)C3)[C@H](C)[C@H]12
The data set is described as §3.

Substrate in data set [13]: C[C@@H](O)[C@H]1C(=O)N2C(C(=O)O)=C(S[C@@H]3CN[C@H](CNS(N)(=O)=O)C3)[C@H](C)[C@H]12
Description: (§4) Kcat/Km ratio of Escherichia coli TEM-1.

Substrate in data set [14]: C[C@@H](O)[C@H]1C(=O)N2C(C(=O)O)=C(S[C@@H]3CN[C@H](C(=O)N(C)C)C3)[C@H](C)[C@H]12
The data set is described as §4.

Substrate in data set [15]: C[C@@H](O)[C@H]1C(=O)N2C(C(=O)O)=C(S[C@@H]3CN[C@H](CNS(N)(=O)=O)C3)[C@H](C)[C@H]12
Description: (§5) Activity of Enterobacter cloacae AmpC.

Substrate in data set [16]: C[C@@H](O)[C@H]1C(=O)N2C(C(=O)O)=C(S[C@@H]3CN[C@H](C(=O)N(C)C)C3)[C@H](C)[C@H]12
The description is as §5.

Substrate in data set [17]: C[C@@H](O)[C@H]1C(=O)N2C(C(=O)O)=C(SCCNC=N)C[C@H]12
The data set is described as §5.

Substrate in data set [18]: C[C@@H](O)[C@H]1C(=O)N2C(C(=O)O)=C(S[C@@H]3CN[C@H](CNS(N)(=O)=O)C3)[C@H](C)[C@H]12
Briefly: (§6) Kcat/Km ratio of Enterobacter cloacae AmpC.

Substrate in data set [19]: C[C@@H](O)[C@H]1C(=O)N2C(C(=O)O)=C(S[C@@H]3CN[C@H](C(=O)N(C)C)C3)[C@H](C)[C@H]12
The data set is described as §6.

Substrate in data set [20]: C[C@@H](O)[C@H]1C(=O)N2C(C(=O)O)=C(SCCNC=N)C[C@H]12
The data set is described as §6.

Substrate in data set [21]: CC(C)(O/N=C(\C(=O)N[C@@H]1C(=O)N2C(C(=O)[O-])=C(C[n+]3ccccc3)CS[C@H]12)c1csc(N)n1)C(=O)O
Briefly: (§7) Activity of Pseudomonas aeruginosa OXA-10.

Substrate in data set [22]: CC1(C)S[C@@H]2[C@H](NC(=O)Cc3ccccc3)C(=O)N2[C@H]1C(=O)O
The data set is described as §7.

Substrate in data set [23]: C[C@@H](O)[C@H]1C(=O)N2C(C(=O)O)=C(S[C@@H]3CN[C@H](CNS(N)(=O)=O)C3)[C@H](C)[C@H]12
Described as §7.

Substrate in data set [24]: C[C@@H](O)[C@H]1C(=O)N2C(C(=O)O)=C(S[C@@H]3CN[C@H](C(=O)N(C)C)C3)[C@H](C)[C@H]12
Described as §7.

Substrate in data set [25]: O=C(Cc1cccs1)N[C@@H]1C(=O)N2C(C(=O)[O-])=C(C[n+]3ccccc3)CS[C@H]12
The description is as §7.

Substrate in data set [26]: C[C@@H](O)[C@H]1C(=O)N2C(C(=O)O)=C(SCCNC=N)C[C@H]12
Described as §7.

Substrate in data set [27]: CC1(C)S[C@@H]2[C@H](NC(=O)Cc3ccccc3)C(=O)N2[C@H]1C(=O)O
Description: (§8) Kcat/Km ratio of Pseudomonas aeruginosa OXA-10.

Substrate in data set [28]: O=C(Cc1cccs1)N[C@@H]1C(=O)N2C(C(=O)[O-])=C(C[n+]3ccccc3)CS[C@H]12
Described as §8.

B1: Beta-lactamase SHV-1 (Klebsiella pneumoniae), P0AD64 (protein)
chain: MRYIRLCIISLLATLPLAVHASPQPLEQIKLSESQLSGRVGMIEMDLASGRTLTAWRADERFPMMSTFKVVLCGAVLARVDAGDEQLERKIHYRQQDLVDYSPVSEKHLADGMTVGELCAAAITMSDNSAANLLLATVGGPAGLTAFLRQIGDNVTRLDRWETELNEALPGDARDTTTPASMAATLRKLLTSQRLSARSQRQLLQWMVDDRVAGPLIRSVLPAGWFIADKTGAGERGARGIVALLGPNNKAERIVVIYLRDTPASMAERNQQIAGIGAALIEHWQR
For B1, the kcat/Km (usually the second-order rate constant that governs catalysis at low substrate concentration) in data set [1] was determined as 6.9e+07 M⁻¹ s⁻¹; in data set [2], 700 M⁻¹ s⁻¹; in data set [3], 400 M⁻¹ s⁻¹; in data set [4] it was 2.6e+06 M⁻¹ s⁻¹; in data set [5], 2400 M⁻¹ s⁻¹. The kcat (as a rule, the number of substrate molecules converted per active site and unit of time at saturation) in data set [6] came to 1100 s⁻¹; in [7], 0.003 s⁻¹; in [8] it was 0.0017 s⁻¹; in [9], 410 s⁻¹; in data set [10] it was 0.054 s⁻¹. The Michaelis constant (Km) (usually the substrate concentration at which the rate is half of its maximum) in [7] amounted to 4.3 µM; in data set [8], 4.2 µM; in [10] it was 23 µM.

B2: Beta-lactamase TEM (Escherichia coli), P62593 (protein)
chain: MSIQHFRVALIPFFAAFCLPVFAHPETLVKVKDAEDQLGARVGYIELDLNSGKILESFRPEERFPMMSTFKVLLCGAVLSRVDAGQEQLGRRIHYSQNDLVEYSPVTEKHLTDGMTVRELCSAAITMSDNTAANLLLTTIGGPKELTAFLHNMGDHVTRLDRWEPELNEAIPNDERDTTMPAAMATTLRKLLTGELLTLASRQQLIDWMEADKVAGPLLRSALPAGWFIADKSGAGERGSRGIIAALGPDGKPSRIVVIYTTGSQATMDERNRQIAEIGASLIKHW
Take B2: the Km in data set [11] came to 5.4 µM; in data set [12] it was 15 µM. The kcat in data set [11] stood at 0.00021 s⁻¹; in data set [12] it was 0.00023 s⁻¹. Besides, the kcat/Km in [13] amounted to 39 M⁻¹ s⁻¹; in data set [14] it was 15 M⁻¹ s⁻¹.

B3: Beta-lactamase (Enterobacter cloacae), P05364 (protein)
chain: MMRKSLCCALLLGISCSALATPVSEKQLAEVVANTITPLMKAQSVPGMAVAVIYQGKPHYYTFGKADIAANKPVTPQTLFELGSISKTFTGVLGGDAIARGEISLDDAVTRYWPQLTGKQWQGIRMLDLATYTAGGLPLQVPDEVTDNASLLRFYQNWQPQWKPGTTRLYANASIGLFGALAVKPSGMPYEQAMTTRVLKPLKLDHTWINVPKAEEAHYAWGYRDGKAVRVSPGMLDAQAYGVKTNVQDMANWVMANMAPENVADASLKQGIALAQSRYWRIGSMYQGLGWEMLNWPVEANTVVEGSDSKVALAPLPVAEVNPPAPPVKASWVHKTGSTGGFGSYVAFIPEKQIGIVMLANTSYPNPARVEAAYHILEALQ
For the protein B3, the Km in data set [15] stood at 9.6 µM; in data set [16] it was 9.8 µM; in data set [17], 24 µM. In addition, the kcat in data set [15] came out at 0.00043 s⁻¹; in [16], 0.00031 s⁻¹; in [17], 0.012 s⁻¹. For the same protein, the values for the catalytic efficiency (kcat/Km) in data set [18], in data set [19] and in data set [20] were 45 M⁻¹ s⁻¹, 32 M⁻¹ s⁻¹ and 500 M⁻¹ s⁻¹, respectively.

B4: Beta-lactamase OXA-10 (Pseudomonas aeruginosa), P14489 (protein)
chain: MKTFAAYVIIACLSSTALAGSITENTSWNKEFSAEAVNGVFVLCKSSSKSCATNDLARASKEYLPASTFKIPNAIIGLETGVIKNEHQVFKWDGKPRAMKQWERDLTLRGAIQVSAVPVFQQIAREVGEVRMQKYLKKFSYGNQNISGGIDKFWLEGQLRISAVNQVEFLESLYLNKLSASKENQLIVKEALVTEAAPEYLVHSKTGFSGVGTESNPGVAWWVGWVEKETEVYFFAFNMDIDNESKLPLRKSIPTKIMESEGIIGG
With B4, the kcat in data set [21] was under 0.0095 s⁻¹; in [22], 86 s⁻¹; in [23], under 0.0073 s⁻¹; in [24], under 0.005 s⁻¹; in data set [25] it was 16 s⁻¹; in data set [26], under 0.014 s⁻¹. The Michaelis constant (Km) in [22] came to 7.9 µM; in [25], 200 µM. For the same protein, the kcat/Km was determined as 1.1e+07 M⁻¹ s⁻¹ in [27] and 80000 M⁻¹ s⁻¹ in data set [28].
